Read-outs that look alike come from different tables or passages of the source.

Assay [1] has as its target T1, proGDF8 (human) (human, UniProt O14793 24-375). Nature of the assay: cell-based or functional assay.
In assay [2] the target is T2, proGDF8 (mouse) (mouse, UniProt O08689 25-376). Nature of the assay: cell-based or functional assay.
The target in assay [3] is T3, Pro Activin A (human, UniProt P08476 21-426).
T3 construct: domain: pro form (prodomain plus growth factor domain)
T3 sequence (looked up): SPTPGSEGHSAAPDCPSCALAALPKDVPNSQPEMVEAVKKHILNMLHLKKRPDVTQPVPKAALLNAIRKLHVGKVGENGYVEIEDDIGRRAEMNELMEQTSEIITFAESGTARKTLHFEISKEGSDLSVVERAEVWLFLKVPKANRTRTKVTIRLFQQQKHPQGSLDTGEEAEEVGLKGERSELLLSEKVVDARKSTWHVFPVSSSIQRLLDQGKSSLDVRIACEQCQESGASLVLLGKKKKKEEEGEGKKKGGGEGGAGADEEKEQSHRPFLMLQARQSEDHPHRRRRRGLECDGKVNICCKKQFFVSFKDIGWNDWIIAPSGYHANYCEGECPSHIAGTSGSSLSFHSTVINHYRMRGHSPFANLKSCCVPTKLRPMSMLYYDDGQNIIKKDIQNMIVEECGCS
Nature of the assay: ForteBio Octet BLI; biotinylated antigen on streptavidin tip, Ab1 in solution.

The target of assay [4] is T4, proGDF11 (human) (human, UniProt O95390 25-407).
T4 construct: domain: proGDF11 (prodomain plus growth factor domain)
The assay is described as above.

In assay [5] the target is T4, proGDF11 (human). Nature of the assay: ForteBio BLI; biotinylated proGDF11 on streptavidin tip, 30 µg/mL antibody, response after 5 minutes of association relative to proGDF8. (In general: BLI is a label-free optical method that tracks binding on a fibre tip over time.)
Description: In this assay, biotinylated proGDF11 or biotinylated proMyostatin was immobilized on a ForteBio BLI streptavidin-coated sensor tip, which was applied to wells containing 30 μg/mL of antibody. Interactions of the analyte with the protein immobilized on the chip are measured by the magnitude of the response of the biosensor chip. The biosensor response after 5 minutes of association (a saturating signal for proGDF8) was compared between the two antigens, and expressed as the percent response for GDF8 binding.
Assay [6] deals with T2, proGDF8 (mouse). Nature of the assay: cell-based or functional assay. The source holds these as a separate data set.
Assay [7] has as its target T5, Mature TGFB1 (UniProt P01137 279-390).
T5 construct: mature; also called mature TGFβ1
Description: ForteBio Octet BLI; antigen on the tip (direct amine coupling), Ab1 in solution.

Assay [8] deals with T6, BMP10 (UniProt O95393 317-424, limits assumed).
T6 construct: mature
T6 sequence (looked up): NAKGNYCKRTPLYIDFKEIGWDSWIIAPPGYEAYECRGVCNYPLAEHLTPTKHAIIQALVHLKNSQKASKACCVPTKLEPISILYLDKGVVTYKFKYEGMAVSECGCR
The description is as above.

The target in assay [9] is T7, Mature Activin A (UniProt P08476 311-426).
T7 construct: mature; also called Activin A growth factor
T7 sequence (looked up): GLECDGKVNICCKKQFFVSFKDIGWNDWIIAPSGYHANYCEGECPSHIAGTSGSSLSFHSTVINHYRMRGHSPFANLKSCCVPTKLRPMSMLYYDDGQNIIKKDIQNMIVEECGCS
The description is as above.

For assay [10], the target named is T8, BMP 9 (UniProt Q9UK05 320-429, limits assumed).
T8 construct: mature
T8 sequence (looked up): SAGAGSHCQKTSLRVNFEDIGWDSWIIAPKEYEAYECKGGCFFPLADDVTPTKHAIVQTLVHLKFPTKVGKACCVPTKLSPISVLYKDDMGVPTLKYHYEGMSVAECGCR
The assay is described as above.

The target of assay [11] is T9, Mature GDF8 (UniProt O14793 267-375, limits assumed).
T9 construct: mature; Amine-coupled to the biosensor tips; also called mature myostatin; mature growth factor of Myostatin
The description is as above.

For assay [12], the target named is T10, Mature GDF11 (UniProt O95390 299-407, limits assumed).
T10 construct: mature; also called GDF11 mature growth factor
The description is as above.

The target of assay [13] is T5, Mature TGFB1. Description: ForteBio Octet BLI; antigen on biosensor, antibody in solution.
Description: (§1) Binding affinities of antibody candidates were determined using the FortéBio Octet QKe dip and read label free assay system utilizing bio-layer interferometry. Antigens were immobilized to biosensors (streptavidin-coated biosensors for proGDF8, proGDF11 and proActivin; direct amine coupling for all others) in each experiment and the antibodies/constructs were presented in solution at high concentration (50 μg/mL) to measure binding interactions.
(§2) Binding affinities of antibodies were determined using the FortéBio Octet QKe dip and read label free assay system utilizing bio-layer interferometry. Human proGDF8, latent GDF8, proGDF11 and proActivin were biotinylated and immobilized to streptavidin-coated biosensors (FortéBio). Mature growth factors were immobilized via direct amine coupling to amine reactive tips according to manufacturer's instructions (FortéBio). In each experiment, the antibodies/constructs were presented in solution at a single high concentration (50 μg/mL) to measure binding interactions.
The target of assay [14] is T6, BMP10. Described as above.
Description: as §1, §2
For assay [15], the target named is T7, Mature Activin A. The description is as above.
Description: as §1, §2
In assay [16] the target is T8, BMP 9. The assay is described as above.
Description: as §1, §2
Assay [17] deals with T3, Pro Activin A. The assay is described as above.
Description: as §1, §2
For assay [18], the target named is T9, Mature GDF8. The description is as above.
Description: as §1, §2
The target in assay [19] is T10, Mature GDF11. The assay is described as above.
Description: as §1, §2
In assay [20] the target is T2, proGDF8 (mouse). Description: cell-based or functional assay. This is another data set of the same source.
The target of the next assay is T11, latent GDF8 (human) (human, UniProt O14793 24-266; O14793 267-375).
T11 construct: proGDF8 cleaved by a proprotein convertase; the split after 243 is inferred from that; also called human latent Myostatin; Human latent GDF8
Nature of the assay: Octet binding kinetics to pro- and latent-Myostatin, compared with parental Ab1.

Assay [21] addresses T1, proGDF8 (human). The assay is described as above.

B1: Ab8 (antibody, V domains shown)
VH: QIQLVQSGAEVKKPGASVKVSCKASGYTFTSYGISWVRQAPGQGLEWMGWISAYNGNTNYAQKLQGRVTMTTDTSTSTAYMELSSLRSEDTAVYYCARVGFYDYVWGSYPYDAFDIWGQGTMVTVSS
VL: EIVMTQSPGTLSLSPGERATLSCRASQSVSSNYLAWYQQKPGQAPRLLIYDASNRATGIPARFSGSGSGTDFTLTISSLEPEDFALYYCQQYGTSPLTFGGGTKLEIKR
As to B1, the “Human proGDF8 IC50 (µM) Reporter assay” value with proGDF8 (human) [1] came out at 6.04 µM. Moreover, the “Murine proGDF8 IC50 (µM) Reporter assay” value with proGDF8 (mouse) [2] worked out at 139 µM.

B2: Ab10 (antibody, V domains shown)
VH: EVQLVQSGGGVVQSGRSLRLSCVASGFSFSNYGMHWVRQAPGKGLEWLAFIWYDGSNKWYADSVKGRFTISRDNSKNALYLQMNSLRAEDTAVYYCARDRYSSSWGGGFDYWGQGTVLTVSS
VL: NFMLTQPHSVSESPGRTVTIPCSGRGGSIASDSVQWYQQRPGSAPTTIIYEDNQRPSGVPDRFSGSVDSSSNSASLTISGLRTEDEADYYCQSYDASSLWVFGGKTKLTVLG
For the molecule B2, the “Human proGDF8 IC50 (µM) Reporter assay” value with proGDF8 (human) [1] was 0.772 µM.

B3: Ab1 parental antibody, IgG4 (S228P), lambda (antibody, V domains shown)
VH: QIQLVQSGGGVVQPGRSLRLSCAASGFTFSSYGMHWVRQAPGKGLEWVAVISYDGSNKYYADSVKGRFTISRDNSKNTLYLQMNSLRAEDTAVYYCARDLLVRFLEWSHYYGMDVWGQGTTVTVSS
VL: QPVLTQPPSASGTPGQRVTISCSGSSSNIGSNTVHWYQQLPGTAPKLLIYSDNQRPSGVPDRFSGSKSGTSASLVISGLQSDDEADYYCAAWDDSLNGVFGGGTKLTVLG
notes: also called parental Ab1 IgG4; 24H4 (WT); copies: 2 + 2
Turning to B3, the binding result in the assay with Pro Activin A [3], with proGDF11 (human) [4], with Mature TGFB1 [7], with BMP10 [8], with Mature Activin A [9] and with BMP 9 [10] was “no binding (tested: 50 ug/mL)” in each case. Further, the binding result in the assay with Mature GDF8 [11] and in the assay with Mature GDF11 [12] was “no binding (tested: 50 ug/mL)” each time. For the same molecule, the “GDF11 response, expressed as a percentage of GDF8 response” value with proGDF11 (human) [5] is 1.33%. Further, the “Activity Assay - 293T cells EC50” value with proGDF8 (mouse) [6] stood at 0.839 µM.

B4: Ab4 (Ab3 with germline framework residues), IgG4 (S228P), lambda (antibody, V domains shown)
VH: QVQLVESGGGVVQPGRSLRLSCAASGFAFSSYGMHWVRQAPGKGLEWVAVISYDGSIKYYADSVKGRFTISRDNSKNTLYLQMNSLRAEDTAVYYCARDLLVRFLEWSHKYGMDVWGQGTTVTVSS
VL: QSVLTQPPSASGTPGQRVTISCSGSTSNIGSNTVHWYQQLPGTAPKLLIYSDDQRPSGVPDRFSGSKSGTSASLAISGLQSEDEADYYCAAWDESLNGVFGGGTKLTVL
notes: human IgG4/lambda framework with S228P; also called Ab4 germline
For the molecule B4, the binding result in the assay with Mature TGFB1 [13], with BMP10 [14], with Mature Activin A [15], with BMP 9 [16], in the assay with Pro Activin A [17] and with Mature GDF8 [18] was “no binding (tested: 50 µg/mL)” each time. Besides, the binding result with Mature GDF11 [19] is “no binding (tested: 50 µg/mL)”. The “GDF11 response, expressed as a percentage of GDF8 response” value with proGDF11 (human) [5] is 2.51%. Moreover, the “Activity Assay - 293T cells EC50” value with proGDF8 (mouse) [20] came to 0.447 µM.

B5: Ab3 (affinity optimized variant of Ab1, parental frameworks) (antibody, IgG4, V domains shown)
VH: QIQLVQSGGGVVQPGRSLRLSCAASGFAFSSYGMHWVRQAPGKGLEWVAVISYDGSIKYYADSVKGRFTISRDNSKNTLYLQMNSLRAEDTAVYYCARDLLVRFLEWSHKYGMDVWGQGTTVTVSS
VL: QPVLTQPPSASGTPGQRVTISCSGSTSNIGSNTVHWYQQLPGTAPKLLIYSDDQRPSGVPDRFSGSKSGTSASLVISGLQSDDEADYYCAAWDESLNGVFGGGTKLTVLG
notes: also called Ab3 parental; copies: 2 + 2
On to B5, for which the binding result with latent GDF8 (human) and with proGDF8 (human) [21] was “binds” in each case.

B6: Ab5 (affinity optimized variant of Ab1, parental frameworks) (antibody, IgG4, V domains shown)
VH: QIQLVQSGGGVVQPGRSLRLSCAASGFAFSSYGMHWVRQAPGKGLEWVAVISYDGNNKYYADSVKGRFTISRDNSKNTLYLQMNSLRAEDTAVYYCARDLLVRFLEWSHKYGMDVWGQGTTVTVSS
VL: QPVLTQPPSASGTPGQRVTISCSGSSSNIGGNTVHWYQQLPGTAPKLLIYSDDQRPSGVPDRFSGSKSGTSASLVISGLQSDDEADYYCAAWDESLNGVFGGGTKLTVLG
notes: also called Ab5 parental; copies: 2 + 2
Take B6: the binding result with latent GDF8 (human) and with proGDF8 (human) [21] was “binds” in each case.

B7: Ab6 (Ab5 with germline framework residues), IgG4 (S228P), lambda (antibody, V domains shown)
VH: QVQLVESGGGVVQPGRSLRLSCAASGFAFSSYGMHWVRQAPGKGLEWVAVISYDGNNKYYADSVKGRFTISRDNSKNTLYLQMNSLRAEDTAVYYCARDLLVRFLEWSHKYGMDVWGQGTTVTVSS
VL: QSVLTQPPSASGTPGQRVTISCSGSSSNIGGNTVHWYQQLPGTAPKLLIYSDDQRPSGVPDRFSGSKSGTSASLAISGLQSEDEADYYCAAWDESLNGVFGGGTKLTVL
notes: human IgG4/lambda framework with S228P; also called Ab6 germline
As to B7, the binding result in the assay with Mature TGFB1 [13], in the assay with BMP10 [14], with Mature Activin A [15], with BMP 9 [16], in the assay with Pro Activin A [17] and in the assay with Mature GDF8 [18] was “no binding (tested: 50 µg/mL)” throughout. For the same molecule, in the assay with Mature GDF11 [19], the binding result was “no binding (tested: 50 µg/mL)”. Moreover, the “GDF11 response, expressed as a percentage of GDF8 response” value with proGDF11 (human) [5] stood at 2.07%.

B8: Ab7 (antibody, V domains shown)
VH: QVQLQQSGAEVKKPGASVKVSCKASGYTFTSYYMHWVRQAPGQGLEWMGIINPSGGSTSYAQKFQGRVTMTRDTSTSTVYMELSSLRSEDTAVYYCARESLIRFLEDPQQGGMDVWGQGTTVTVSS
VL: QSALTQPASVSGSPGQSLTISCTGTSSDIGGYNYVSWYQQHPGKAPKLIIYDVTDRPSGVSGRFSGSKSGNTASLTISGLQTEDEAEYFCNSWTRSNNYIFGGGTKLTVLG
As for B8, the “Human proGDF8 IC50 (µM) Reporter assay” value in the assay with proGDF8 (human) [1] came to 0.983 µM. In addition, the “Murine proGDF8 IC50 (µM) Reporter assay” value in the assay with proGDF8 (mouse) [2] was 1.68 µM.

B9: Ab9 (antibody, V domains shown)
VH: QVQLVQSGAEVKKPGSSVKVSCKASGGTFSSYAISWVRQAPGQGLEWMGGIIPIFGTANYAQKFQGRVTITADESTSTAYMELSSLRSEDTAVYYCANHGLMDDSSGYYLSNAFDIWGQGTMVTVSS
VL: not shown
For the molecule B9, the “Human proGDF8 IC50 (µM) Reporter assay” value with proGDF8 (human) [1] was determined as 12.2 µM. Besides, in the assay with proGDF8 (mouse) [2], the “Murine proGDF8 IC50 (µM) Reporter assay” value came out at 19.9 µM.
